In assay [1] the target is T1, human IL-36γ, truncated (human, UniProt Q9NZH8 18-169).
T1 sequence: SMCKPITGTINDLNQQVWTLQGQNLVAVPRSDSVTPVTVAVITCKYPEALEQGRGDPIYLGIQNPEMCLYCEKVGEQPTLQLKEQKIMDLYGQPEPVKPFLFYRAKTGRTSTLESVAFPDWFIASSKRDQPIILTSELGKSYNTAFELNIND
The experiment in a line: cell-based or functional assay.

The target in assay [2] is T1, human IL-36γ, truncated. The experiment in a line: SPR, Biacore T200, antibody on chip, IL-36 as analyte, 1:1 Langmuir fit. A digest of the protocol:
(§1)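 Single-cycle kinetics: mouse/human chimeric or mouse antibodies captured (~200 RU) via anti-human or anti-mouse Fc on CM5, then increasing IL-36 concentrations injected, 300 s association, 1200 s dissociation. Alternatively ~2000 RU antibody amine-coupled, analyte 30 μL/min for 420 s, 3600 s dissociation, 25° C; double-referenced sensorgrams.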
In general terms: In SPR one partner is held on a chip, and binding of the other changes the refractive index at the surface.

Assay [3] deals with T2, human IL-36α(R12), truncated (human, UniProt Q9UHA7 6-158).
T2 construct: Untagged after removal of the His-SUMO tag; also called hIL-36alpha
T2 chain: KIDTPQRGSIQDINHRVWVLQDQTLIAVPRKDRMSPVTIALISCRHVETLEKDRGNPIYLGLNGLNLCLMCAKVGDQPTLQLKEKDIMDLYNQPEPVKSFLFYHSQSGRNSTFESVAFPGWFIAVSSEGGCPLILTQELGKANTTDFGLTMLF
Kind of assay: ELISA binding screen and HaCaT assay.

For assay [4], the target named is T3, cynomolgus IL-36γ, truncated (cynomolgus macaque (Macaca fascicularis), UniProt Q9NZH8 18-167 (human entry), limits assumed).
T3 chain: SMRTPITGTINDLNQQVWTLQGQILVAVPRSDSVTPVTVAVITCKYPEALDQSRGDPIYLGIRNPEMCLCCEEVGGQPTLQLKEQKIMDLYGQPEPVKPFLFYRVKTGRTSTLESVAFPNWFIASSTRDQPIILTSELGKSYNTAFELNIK
Kind of assay: cell-based or functional assay.

The target in assay [5] is T1, human IL-36γ, truncated. The experiment in a line: cell-based or functional assay. This is another data set of the same source.
In assay [6] the target is T4, cynomolgus IL-36α, truncated (cynomolgus macaque (Macaca fascicularis), UniProt Q9UHA7 14-158 (human entry), limits assumed).
T4 chain: T2 chain with I2S, D3E, T4M, R7P, G8V, T24I, M34V, A40S, V74A
The experiment in a line: cell-based or functional assay.

Assay [7] deals with T2, human IL-36α(R12), truncated. Kind of assay: SPR, Biacore T200, antibody on chip, IL-36 as analyte, 1:1 Langmuir fit. A digest of the protocol: as §1
For assay [8], the target named is T3, cynomolgus IL-36γ, truncated. The experiment in a line: ELISA binding screen and HaCaT assay. In general terms: An ELISA detects its analyte on a solid surface through an enzyme-linked reagent.
In assay [9] the target is T4, cynomolgus IL-36α, truncated. The experiment in a line: ELISA binding screen and HaCaT assay.
Assay [10] addresses T2, human IL-36α(R12), truncated. The experiment in a line: cell-based or functional assay.

Where a chain is given by its changes, count along the chain named.

B1: 144L472A (antibody, V domains shown)
VH: EVQLQQSGAELVKPGASVKLSCTVSGFNIKDTYMYWVKQRPEQGLEWIGRIDPANGYAKYDPKFQGKATLTADTSSNTAYLQLSSLTSEDTAVYFCARFHWYDSAFYFDFWGQGTTLTVSS
VL: QAVVTQESALTTSPGETVTLTCRSSSGAVTTSNYANWVQEKPDHLFTGLIGGTNNRAPGVPARFSGSLIGDKAALTITGAQTEDEAIYFCGLWYSNHWVFGGGTKLTVL
notes: Mouse monoclonal from hybridoma; mouse IgG heavy and lambda light chain
What is called Kd is the free concentration of one partner at which half of the binding sites on the other are occupied at equilibrium, for simple one-to-one binding. A higher Kd goes with lower affinity. The koff is the first-order rate constant of dissociation. Broadly, the kon is the rate constant with which the complex forms. Low values mean slower complex formation, high ones faster complex formation. B1: in the assay with human IL-36γ, truncated [1], the “IC50 of IL-8 secretion, primary human monocytes, 6 nM human IL-36γ, FIG. 5C” value is 15.7 nM and the “IC50 of IL-8 secretion, primary human monocytes, 50 nM human IL-36γ, FIG. 5D” value was 40 nM. In the assay with human IL-36γ, truncated [2], this molecule showed a dissociation constant Kd of 1000 nM, a dissociation rate constant (koff) of 0.00208 s⁻¹ and a kon of 2070 M⁻¹ s⁻¹. Further, the binding result in assay [3] is recorded as “binds”. Besides, in assay [4], the “IC50 of IL-8 secretion, HaCaT, 10 nM cynomolgus IL-36γ, FIG. 2D” value stood at 17.1 nM. In the assay with human IL-36γ, truncated [5], the “IC50 of IL-8 secretion, HaCaT, 10 nM human IL-36γ, FIG. 1F” value was determined as 11.9 nM. The “IC50 of IL-8 secretion, HaCaT, 10 nM cynomolgus IL-36α, FIG. 2B” value in assay [6] came out at 63.2 nM.

B2: 144D666C (antibody, V domains shown)
VH: EVQLQQSGAELVKPGASVKLTCTASGFNIKDTYIYWVKQRPAQGLEWIGRIDPANAYTKFDPKFQGKATLTADTSSNTAYLQLSSLTSEDTAVYYCTRFHWYGSSFFFDYWGQGTTLTVSS
VL: B1 VL with S26T, N54D, A57P, G91A, H97L
notes: as for B1
Regarding B2, in assay [7], binding was put at a Kd of 18 nM, the off-rate (koff) stood at 0.00184 s⁻¹ and the kon is 102000 M⁻¹ s⁻¹. In the assay with human IL-36γ, truncated [2], this molecule registered a dissociation constant (Kd) of 1.08 nM, an off-rate constant (koff) of 0.000676 s⁻¹ and an on-rate (kon) of 625000 M⁻¹ s⁻¹. In addition, the binding result in assay [8] was “binds”. Further, in assay [9], the binding result was “binds”. Also, the “IC50 of IL-8 secretion, HaCaT, 10 nM human IL-36γ, FIG. 1D” value in the assay with human IL-36γ, truncated [5] stood at 5.12 nM. In addition, in assay [10], the “IC50 of IL-8 secretion, HaCaT, 10 nM human IL-36α, FIG. 1A” value was determined as 49.5 nM.

Source of the values: patent publication US20210380675A1 (Kyowa Kirin, published 2021).
